Entries after “also recorded” stand apart in the source; their conditions may differ.
Assays:
[1] = biological target: T1, C5 hemolytic activity in mouse serum (Mus musculus, UniProt P06684); test: Inhibition of C5 hemolytic activity in serum; format: biochemical; details: FIG. 5D
T1 construct: from tissue; host or cells: mouse serum
Description: (§1) Measurements were performed as described in example 8, using sera from human (panel A), rat (panel B), rabbit (panel C), mouse (panel D). Since the amino acid sequence corresponding to the cleavage site of convertase on the C5 alpha chain is conserved in several animal species, it was furthermore evaluated, by hemolytic assay, the ability of TS-A12/22 antibody to inhibit conversion of C5 to C5a also in rabbit, mouse and rat sera.

[2] = tested on: C5 hemolytic activity in rabbit serum; test: Inhibition of C5 hemolytic activity in serum; format: biochemical
Description: as §1

[3] = biological target: T2, C5 hemolytic activity in rat serum (Rattus norvegicus, UniProt P08650); test: Inhibition of C5 hemolytic activity in serum; format: biochemical
T2 construct: from tissue; host or cells: rat serum
Description: as §1

[4] = biological target: T3, C5 hemolytic activity in human serum (Homo sapiens, UniProt P01031); test: Inhibition of C5 hemolytic activity in serum; format: biochemical; details: FIG. 5A
T3 construct: from tissue; host or cells: human serum
Description: as §1

[5] = biological target: T4, C5 (Homo sapiens, UniProt P01031); test: Haemolytic assay / TCC ELISA with EAC1-3b sheep erythrocytes and C5 depleted serum; format: biochemical; details: FIG. 1B
T4 construct: C5 alpha and beta subunits were obtained by incubating 50 μg of C5; purchased Quidel
Description: (§2) Panel A) The ELISA assay measures the amount of C5a fragment released in the supernatant after enzymatic cleavage of C5, using antibodies anti-C5 as described in example 6. […] Sheep erythrocytes sensitised with antibodies and coated until the C3b (EAC1-3b) complement step were added to the mixture of TS-A12 or TS-A12/22 and C5, and the mixture was further incubated for 30 minutes at 37° C. (panel B).
Sheep erythrocytes (SBRC: Sheep red blood cells) were sensitised with sub-agglutinating amounts of rabbit IgM (EA). […]
(§3) The obtained anti-C5 scFv fragments were further characterised for their ability to inhibit the hemolytic activity of C5 or, in other words, to block conversion of the C5 component to C5a. […] At the end of this procedure, cell lysis was measured as percentage of the control of total lysis in distilled H2O (see FIG. 1, panel B). The inhibition of C5a and TCC production by the scFv TS-A12 and TS-A12/22 was measured by means of ELISA using the monoclonal antibody 17/5 as the capture antibody and antibody G25/2 as detection antibody according to what has been described in Opperman et al., 1991, Complement Inflamm. […] The presence of TCC was measured using antibody aE11 as the capture antibody and a biotinylated anti-C5 antibody (SIGMA-ALDRICH®) followed by alkaline phosphatase-conjugated streptavidin, as described by Tedesco et al. (1997, J Exp. Med. 185:1619).

[6] = tested on: rat joint; test: Rat model of antigen-induced (BSA) arthritis, intra-articular scFv; format: in vivo
Description: Polymorphonuclear Leukocytes (PMN), isolated from intra-articular wash out of rats with arthritis induced by instillation of BSA (mBSA), were incubated with antibody TS-A12/22 or with an unrelated antibody, as described in example 10.
Saline solution: control without induced arthritis; mBSA: BSA-induced arthritis, untreated; unrelated: BSA-induced arthritis, treated with unrelated scFv antibody; Ts-a12/22: BSA-induced arthritis, treated with the antibody of the invention.
Histological sections of joints from rats treated with intra-articular injection of saline (A), BSA (B), BSA with TS-A12/22 (C) and BSA with the unrelated antibody (D) were analysed by immunofluorescence for the presence of complement components C3 and C9, as described in example 10.
In order to test the effect of the TS-A12/22 antibody in vivo, the influx of PMN was measured in the rat joint injected with BSA, BSA and TS-A12/22 or BSA and unrelated antibody. […] Moreover the deposition of the C3 and C9 complement components was checked on a histological section of the joint of the back paw of treated rats, by immunofluorescence with specific antisera and fluorescein-conjugated secondary antibody (FIG. 7). […] It was thus confirmed that the TS-A12/22 antibody inhibits the complement cascade at a step intermediate between C3 and C9 and therefore at the level of the conversion of C5 to C5a+C5b.

[7] = biological target: C3 (Homo sapiens, UniProt P01024); test: Specificity on other complement components; format: binding
Description: (§4) (The specificity of TS-A12/22 antibody was evaluated also on other components of the complement cascade, as for instance C3 and C4, which are structurally similar to C5, but cross-reactivity was not found).

[8] = tested on: C4; test: Specificity on other complement components; format: binding
Description: as §4

[9] = biological target: T4, C5; test: ELISA of C5a released after cleavage of C5 by C5 convertase; format: biochemical; details: FIG. 1A, classical pathway
Description: as §2, §3

T2 sequence (P08650 679-1681 limits assumed): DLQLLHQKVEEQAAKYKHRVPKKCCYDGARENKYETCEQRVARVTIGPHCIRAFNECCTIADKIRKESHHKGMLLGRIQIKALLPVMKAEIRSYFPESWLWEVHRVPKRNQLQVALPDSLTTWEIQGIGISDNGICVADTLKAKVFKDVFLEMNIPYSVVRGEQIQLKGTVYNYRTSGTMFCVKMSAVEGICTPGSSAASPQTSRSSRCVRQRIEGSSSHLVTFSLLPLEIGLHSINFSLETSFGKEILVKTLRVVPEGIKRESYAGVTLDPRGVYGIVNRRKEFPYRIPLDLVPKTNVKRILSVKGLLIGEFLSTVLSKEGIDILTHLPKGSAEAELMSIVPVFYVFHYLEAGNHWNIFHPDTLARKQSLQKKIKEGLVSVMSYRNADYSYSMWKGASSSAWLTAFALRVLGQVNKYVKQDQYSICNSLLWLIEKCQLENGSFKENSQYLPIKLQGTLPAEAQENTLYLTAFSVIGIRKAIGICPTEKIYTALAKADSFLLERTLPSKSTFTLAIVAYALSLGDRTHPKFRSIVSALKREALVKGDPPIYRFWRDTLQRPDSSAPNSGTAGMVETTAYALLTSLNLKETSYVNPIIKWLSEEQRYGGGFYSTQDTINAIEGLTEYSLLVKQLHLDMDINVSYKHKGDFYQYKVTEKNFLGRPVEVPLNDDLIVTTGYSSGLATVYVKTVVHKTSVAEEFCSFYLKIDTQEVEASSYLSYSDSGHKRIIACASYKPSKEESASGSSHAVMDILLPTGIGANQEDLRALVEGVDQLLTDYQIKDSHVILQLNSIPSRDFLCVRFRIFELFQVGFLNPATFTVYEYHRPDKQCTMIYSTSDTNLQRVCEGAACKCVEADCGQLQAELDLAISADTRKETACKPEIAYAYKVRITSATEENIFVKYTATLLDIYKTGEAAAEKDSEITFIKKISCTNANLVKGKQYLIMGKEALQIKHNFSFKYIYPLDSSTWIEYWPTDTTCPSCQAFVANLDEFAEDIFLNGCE
T2 sequence (P08650 19-674 limits assumed): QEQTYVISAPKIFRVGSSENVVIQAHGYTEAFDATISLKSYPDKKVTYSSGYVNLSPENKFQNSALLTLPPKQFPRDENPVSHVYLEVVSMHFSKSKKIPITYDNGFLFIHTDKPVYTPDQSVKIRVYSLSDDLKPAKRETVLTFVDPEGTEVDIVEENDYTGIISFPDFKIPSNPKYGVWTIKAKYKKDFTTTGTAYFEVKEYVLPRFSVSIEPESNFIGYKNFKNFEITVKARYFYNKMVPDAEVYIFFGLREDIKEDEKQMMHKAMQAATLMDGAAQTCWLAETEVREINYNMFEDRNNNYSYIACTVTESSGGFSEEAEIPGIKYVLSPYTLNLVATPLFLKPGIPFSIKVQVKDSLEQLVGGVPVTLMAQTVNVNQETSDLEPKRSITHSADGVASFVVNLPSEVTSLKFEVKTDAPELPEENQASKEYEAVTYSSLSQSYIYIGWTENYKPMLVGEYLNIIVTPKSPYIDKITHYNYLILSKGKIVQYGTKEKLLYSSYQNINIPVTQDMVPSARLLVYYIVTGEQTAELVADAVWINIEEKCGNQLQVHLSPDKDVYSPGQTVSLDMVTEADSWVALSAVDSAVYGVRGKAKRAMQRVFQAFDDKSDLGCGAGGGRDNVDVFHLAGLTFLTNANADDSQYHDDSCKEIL
T4 sequence (P01031 678-1676 limits assumed): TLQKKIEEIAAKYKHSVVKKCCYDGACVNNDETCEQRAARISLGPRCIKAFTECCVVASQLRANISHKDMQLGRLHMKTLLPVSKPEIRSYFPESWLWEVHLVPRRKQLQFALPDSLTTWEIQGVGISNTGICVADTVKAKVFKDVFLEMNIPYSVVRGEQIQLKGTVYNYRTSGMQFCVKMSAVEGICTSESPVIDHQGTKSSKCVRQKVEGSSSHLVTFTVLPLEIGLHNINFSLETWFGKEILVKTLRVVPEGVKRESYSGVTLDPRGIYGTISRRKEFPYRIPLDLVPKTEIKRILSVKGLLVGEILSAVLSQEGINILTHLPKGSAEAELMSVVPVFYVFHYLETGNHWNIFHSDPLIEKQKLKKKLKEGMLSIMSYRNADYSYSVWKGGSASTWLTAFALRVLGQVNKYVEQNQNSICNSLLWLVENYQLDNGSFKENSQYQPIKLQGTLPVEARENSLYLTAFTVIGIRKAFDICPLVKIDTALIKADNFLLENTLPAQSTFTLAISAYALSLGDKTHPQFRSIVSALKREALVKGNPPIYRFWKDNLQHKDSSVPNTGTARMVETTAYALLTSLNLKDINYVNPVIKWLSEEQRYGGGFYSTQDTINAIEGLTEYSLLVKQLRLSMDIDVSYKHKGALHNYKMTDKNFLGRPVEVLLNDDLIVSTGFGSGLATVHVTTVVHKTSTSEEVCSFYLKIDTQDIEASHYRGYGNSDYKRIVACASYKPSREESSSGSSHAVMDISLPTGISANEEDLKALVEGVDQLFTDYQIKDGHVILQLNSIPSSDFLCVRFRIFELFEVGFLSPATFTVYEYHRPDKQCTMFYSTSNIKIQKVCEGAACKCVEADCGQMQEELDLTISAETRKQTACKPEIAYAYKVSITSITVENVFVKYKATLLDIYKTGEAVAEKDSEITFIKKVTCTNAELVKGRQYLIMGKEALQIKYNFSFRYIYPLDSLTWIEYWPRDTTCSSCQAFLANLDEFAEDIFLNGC
T4 sequence (P01031 19-673 partner limits assumed): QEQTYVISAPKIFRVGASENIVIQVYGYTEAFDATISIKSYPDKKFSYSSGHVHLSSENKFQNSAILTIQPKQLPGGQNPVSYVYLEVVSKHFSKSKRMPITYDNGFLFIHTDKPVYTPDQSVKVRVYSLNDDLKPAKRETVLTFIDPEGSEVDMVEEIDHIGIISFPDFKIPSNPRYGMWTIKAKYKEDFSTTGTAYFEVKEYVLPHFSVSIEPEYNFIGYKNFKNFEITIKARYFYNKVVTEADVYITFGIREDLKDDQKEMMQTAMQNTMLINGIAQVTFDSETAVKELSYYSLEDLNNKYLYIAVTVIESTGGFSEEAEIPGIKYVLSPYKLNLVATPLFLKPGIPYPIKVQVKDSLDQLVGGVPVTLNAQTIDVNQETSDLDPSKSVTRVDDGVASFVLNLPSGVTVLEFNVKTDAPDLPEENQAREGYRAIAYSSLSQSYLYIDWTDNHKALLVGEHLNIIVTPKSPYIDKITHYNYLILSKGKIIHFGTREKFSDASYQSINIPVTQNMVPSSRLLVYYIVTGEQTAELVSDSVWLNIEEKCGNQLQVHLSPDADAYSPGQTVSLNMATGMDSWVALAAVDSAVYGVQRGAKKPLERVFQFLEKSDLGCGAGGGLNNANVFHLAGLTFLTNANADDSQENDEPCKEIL
T3 sequence (P01031 678-1676 limits assumed): as the sequence (P01031 678-1676 limits assumed) above
T3 sequence (P01031 19-673 partner limits assumed): as the sequence (P01031 19-673 partner limits assumed) above
T1 sequence (P06684 679-1680 limits assumed): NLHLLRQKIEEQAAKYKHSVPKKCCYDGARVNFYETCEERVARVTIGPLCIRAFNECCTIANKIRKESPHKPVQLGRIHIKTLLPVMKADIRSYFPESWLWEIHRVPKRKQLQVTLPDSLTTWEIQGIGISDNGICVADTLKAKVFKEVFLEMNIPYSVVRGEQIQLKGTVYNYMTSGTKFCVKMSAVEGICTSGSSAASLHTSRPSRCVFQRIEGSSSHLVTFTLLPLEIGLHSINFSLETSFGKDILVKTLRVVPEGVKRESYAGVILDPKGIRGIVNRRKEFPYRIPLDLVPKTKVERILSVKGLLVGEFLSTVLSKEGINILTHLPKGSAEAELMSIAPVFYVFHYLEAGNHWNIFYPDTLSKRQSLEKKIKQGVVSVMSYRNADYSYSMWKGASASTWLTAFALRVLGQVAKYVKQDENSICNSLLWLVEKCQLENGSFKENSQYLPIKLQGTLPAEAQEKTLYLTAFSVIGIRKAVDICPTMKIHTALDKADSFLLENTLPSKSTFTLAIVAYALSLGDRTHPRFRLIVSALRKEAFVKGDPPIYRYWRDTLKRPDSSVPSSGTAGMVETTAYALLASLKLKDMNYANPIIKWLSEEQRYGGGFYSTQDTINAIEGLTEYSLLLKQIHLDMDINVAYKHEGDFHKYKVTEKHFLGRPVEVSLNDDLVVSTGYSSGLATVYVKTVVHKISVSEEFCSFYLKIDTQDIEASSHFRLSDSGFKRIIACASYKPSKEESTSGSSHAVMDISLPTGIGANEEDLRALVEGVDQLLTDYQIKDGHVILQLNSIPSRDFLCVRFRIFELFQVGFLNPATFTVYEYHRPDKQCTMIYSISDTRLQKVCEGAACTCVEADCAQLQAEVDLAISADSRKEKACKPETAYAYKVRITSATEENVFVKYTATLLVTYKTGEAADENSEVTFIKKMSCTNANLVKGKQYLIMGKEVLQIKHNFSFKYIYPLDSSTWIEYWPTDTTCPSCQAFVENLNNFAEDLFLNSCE
T1 sequence (P06684 19-674 partner limits assumed): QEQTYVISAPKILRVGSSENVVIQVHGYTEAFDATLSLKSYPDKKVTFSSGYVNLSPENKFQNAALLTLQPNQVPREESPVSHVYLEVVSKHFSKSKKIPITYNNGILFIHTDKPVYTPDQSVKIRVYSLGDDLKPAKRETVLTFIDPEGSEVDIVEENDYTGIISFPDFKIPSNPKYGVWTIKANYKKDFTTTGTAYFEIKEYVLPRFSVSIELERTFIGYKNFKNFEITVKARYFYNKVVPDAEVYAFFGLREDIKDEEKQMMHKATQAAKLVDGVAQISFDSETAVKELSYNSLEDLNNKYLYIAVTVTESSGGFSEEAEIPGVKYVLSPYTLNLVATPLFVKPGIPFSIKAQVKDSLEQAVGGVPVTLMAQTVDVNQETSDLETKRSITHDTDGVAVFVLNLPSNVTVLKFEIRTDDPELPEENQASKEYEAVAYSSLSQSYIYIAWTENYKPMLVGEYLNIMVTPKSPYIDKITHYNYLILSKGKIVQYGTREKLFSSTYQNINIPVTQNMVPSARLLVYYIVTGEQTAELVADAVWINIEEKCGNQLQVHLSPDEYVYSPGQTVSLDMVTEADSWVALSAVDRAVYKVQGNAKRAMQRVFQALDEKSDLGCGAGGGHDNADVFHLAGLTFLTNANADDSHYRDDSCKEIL

B1: TS-A12/22: anti-C5 scFv obtained from TS-A12 by VL chain shuffling; VH3/V-48 and Vλ3/V2-14; amino acid sequence SEQ ID NO:6 (protein, listed as Homo sapiens)
scFv: DIRMTQSPDSLAVSLGERATINCKSSQSVLYSSNNKNYLAWYQQKPGQPPKLLIYWASTRESGVPDRFSGSGSGTDFTLTISSLQAEDVAVYYCQQYYSTPQLTFGGRTKVDIKSGGSTITSYNVYYTKLSSSGTQVQLQQSEGGVVQPGRSLRLSCAASGFTFSSYGMNWVRQAPGKGLEWVSYISSSSSTIYYADSVKGRFTISRDNSKNTLYLQMNSLRAEDTAVYYCARGPGMDVWGQGTTVTVSS
inhibition of hemolytic activity in serum [1]: capable of inhibiting | efficiency of inhibition compared with human serum [2]: higher | inhibition of hemolytic activity in serum ([2]; FIG. 5C): capable of inhibiting | efficiency of inhibition compared with human serum [3]: practically similar to that of human serum; also recorded: higher | inhibition of hemolytic activity in serum ([3]; FIG. 5B): capable of inhibiting | inhibition of hemolytic activity in serum [4]: capable of inhibiting | inhibition of formation of TCC [5]: inhibit almost completely | deposition of C3 in the joint (immunofluorescence) ([6]; FIG. 7): remained unchanged; also recorded: does not affect | deposition of C9 in the joint (immunofluorescence) ([6]; FIG. 7): strongly inhibited; also recorded: significantly reduces | number of PMN in the joint wash out liquid ([6]; versus BSA or BSA and unrelated antibody, FIG. 6): significantly reduced; also recorded: drastically reduced | cross-reactivity with C3 [7]: not found | cross-reactivity with C4 [8]: not found | inhibition of formation of C5a [9]: inhibit almost completely

— US8962819B2, “Anti-C5 alpha antibodies” (Adienne S.A., priority 2002, dated 2015)
